The source of these data is patent US20020086312A1 (IMMUNEX, published 2002).

For assay [1], the target named is T1, murine RANK, endogenous on RAW 264.7 cells (murine) (UniProt O35305).
T1 sequence: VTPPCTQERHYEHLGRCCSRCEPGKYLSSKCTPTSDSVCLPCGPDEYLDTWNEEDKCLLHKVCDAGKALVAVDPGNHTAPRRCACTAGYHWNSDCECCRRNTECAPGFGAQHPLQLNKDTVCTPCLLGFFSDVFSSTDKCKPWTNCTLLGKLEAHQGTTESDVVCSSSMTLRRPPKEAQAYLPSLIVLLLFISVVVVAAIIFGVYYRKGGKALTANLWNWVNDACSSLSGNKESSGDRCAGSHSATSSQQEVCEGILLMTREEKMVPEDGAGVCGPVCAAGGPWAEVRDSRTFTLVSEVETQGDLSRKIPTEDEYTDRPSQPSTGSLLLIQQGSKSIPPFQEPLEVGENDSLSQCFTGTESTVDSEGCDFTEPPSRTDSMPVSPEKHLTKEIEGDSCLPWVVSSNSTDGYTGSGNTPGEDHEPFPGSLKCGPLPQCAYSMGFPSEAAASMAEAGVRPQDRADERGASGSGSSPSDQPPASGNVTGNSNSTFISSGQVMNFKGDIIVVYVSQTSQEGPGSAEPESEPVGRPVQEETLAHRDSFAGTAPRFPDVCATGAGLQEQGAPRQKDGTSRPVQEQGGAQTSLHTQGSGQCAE
Description: cell-based or functional assay.

Assay [2] concerns the target T2, full-length human RANK (SEQ ID NO:2) (human, UniProt Q9Y6Q6 29-616).
T2 sequence: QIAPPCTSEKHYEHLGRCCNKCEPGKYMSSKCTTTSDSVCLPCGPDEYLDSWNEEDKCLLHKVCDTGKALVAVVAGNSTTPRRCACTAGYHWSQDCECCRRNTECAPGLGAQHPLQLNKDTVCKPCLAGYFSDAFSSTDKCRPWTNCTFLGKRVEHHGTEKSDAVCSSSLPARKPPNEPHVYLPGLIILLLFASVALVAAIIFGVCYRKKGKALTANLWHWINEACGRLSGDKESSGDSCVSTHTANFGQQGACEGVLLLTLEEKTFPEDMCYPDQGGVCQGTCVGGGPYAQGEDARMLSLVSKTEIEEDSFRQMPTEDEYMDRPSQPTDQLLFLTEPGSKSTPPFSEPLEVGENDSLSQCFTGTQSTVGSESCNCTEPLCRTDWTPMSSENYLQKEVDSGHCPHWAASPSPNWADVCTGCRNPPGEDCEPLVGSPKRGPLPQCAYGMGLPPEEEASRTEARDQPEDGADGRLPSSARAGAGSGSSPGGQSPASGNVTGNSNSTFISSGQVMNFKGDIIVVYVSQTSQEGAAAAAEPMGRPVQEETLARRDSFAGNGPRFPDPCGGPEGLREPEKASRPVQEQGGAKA
Description: cell-based or functional assay.

Regarding “leucine zipper form of murine RANK-L (from UniProt O35235 70-316) (ligand)”, in assay [1], the induction of the MMP-9/luciferase promoter in transfected RAW 264.7 cells, 1 ug/ml for 18 hours fell in the range of 10 to 15 fold; the mouse MMP-9 mRNA in RAW 264.7 cells by quantitative RT-PCR, 200 ng/ml was over 350 fold; the mouse TRAP mRNA in RAW 264.7 cells by quantitative RT-PCR, 200 ng/ml is over 250 fold.
In assay [2], “murine RANK-L (mRANK-L, 200 ng/ml in the differentiation medium) (from UniProt O35235 70-316) (ligand)” showed a 32P incorporation into a c-src-specific substrate by extracts of RANK -/- spleen cells expressing wild-type RANK, after differentiation in CSF-1 and mRANK-L of 15 fold; a F-actin ring formation (fluorescent phalloidin staining) in RANK -/- cells expressing wild-type RANK, cultured 5 days with CSF-1 and mRANK-L (% of the cells) of over 50.

B1: human full-length RANK-L (SEQ ID NO:6) (ligand)
chain: MRRASRDYTKYLRGSEEMGGGPGAPHEGPLHAPPPPAPHQPPAASRSMFVALLGLGLGQVVCSVALFFYFRAQMDPNRISEDGTHCIYRILRLHENADFQDTTLESQDTKLIPDSCRRIKQAFQGAVQKELQHIVGSQHIRAEKAMVDGSWLDLAKRSKLEAQPFAHLTINATDIPSGSHKVSLSSWYHDRGWAKISNMTFSNGKLIVNQDGFYYLYANICFRHHETSGDLATEYLQLMVYVTKTSIKIPSSHTLMKGGSTKYWSGNSEFHFYSINVGGFFKLRSGEEISIEVSNPSLLDPDQDATYFGAFKVRDID
In the case of B1, in assay [2], the “luciferase reporter expression from the human TRAP promoter, co-transfected 293/EBNA cells” value is about 1.5 fold; the “luciferase reporter expression from the mouse TRAP promoter, co-transfected 293/EBNA cells” value was about 4 fold; the “luciferase reporter expression from the murine MMP-9 promoter, co-transfected 293/EBNA cells” value was 2.5 fold.
